From patent US9187525B2, “Methods of treating ophthalmic diseases using NPR-B agonists” (Shire Orphan Therapies GmbH, dated 2015)
Numbered stars: 1 amine (or outer) side, 2 acyl side, 3 side chain; on linkers, the order of the positions; unused ones are H or OH. Square brackets hold non-standard residues; d marks the D form. Ends that are not written are not given here. * marks the point of attachment. Tap(Ae) = (2S,4R)-4-(2-aminoethylamino)pyrrolidine-2-carboxylic acid, O=C([C@@H]1C[C@@H](NCCN[*:3])CN1[*:1])[*:2]; dap(6263)2 = (R)-2-amino-3-(bis(2-aminoethyl)amino)propanoic acid, NCCN(CCN[*:3])C[C@@H](N[*:1])C(=O)[*:2]; Tap(Ap) = 4-(3-amino-propylamino)-pyrrolidine-2-carboxylic acid; Pro(trans-4-NH2) = O=C([C@@H]1C[C@@H](N[*:3])CN1[*:1])[*:2]; Sni = (S)-nipecotic acid, O=C([C@H]1CCCN([*:1])C1)[*:2]; dDap(Me2) = CN(C)C[C@@H](N)C(=O)O; Hyp = O=C(O)[C@@H]1C[C@@H](O)CN1; Dap(Me2) = CN(C)C[C@H](N)C(=O)O; NMeL = CN[C@@H](CC(C)C)C(=O)O; AR‑201‑58 = not defined here; AR‑201‑62 = not defined here; AR‑201‑69 = not defined here; AR‑201‑72 = not defined here; AR‑201‑73 = not defined here; Octanoyl = CCCCCCCC(=O)*; Occ = octanoic acid

T1: natriuretic peptide receptor-B (human)
T1 chain: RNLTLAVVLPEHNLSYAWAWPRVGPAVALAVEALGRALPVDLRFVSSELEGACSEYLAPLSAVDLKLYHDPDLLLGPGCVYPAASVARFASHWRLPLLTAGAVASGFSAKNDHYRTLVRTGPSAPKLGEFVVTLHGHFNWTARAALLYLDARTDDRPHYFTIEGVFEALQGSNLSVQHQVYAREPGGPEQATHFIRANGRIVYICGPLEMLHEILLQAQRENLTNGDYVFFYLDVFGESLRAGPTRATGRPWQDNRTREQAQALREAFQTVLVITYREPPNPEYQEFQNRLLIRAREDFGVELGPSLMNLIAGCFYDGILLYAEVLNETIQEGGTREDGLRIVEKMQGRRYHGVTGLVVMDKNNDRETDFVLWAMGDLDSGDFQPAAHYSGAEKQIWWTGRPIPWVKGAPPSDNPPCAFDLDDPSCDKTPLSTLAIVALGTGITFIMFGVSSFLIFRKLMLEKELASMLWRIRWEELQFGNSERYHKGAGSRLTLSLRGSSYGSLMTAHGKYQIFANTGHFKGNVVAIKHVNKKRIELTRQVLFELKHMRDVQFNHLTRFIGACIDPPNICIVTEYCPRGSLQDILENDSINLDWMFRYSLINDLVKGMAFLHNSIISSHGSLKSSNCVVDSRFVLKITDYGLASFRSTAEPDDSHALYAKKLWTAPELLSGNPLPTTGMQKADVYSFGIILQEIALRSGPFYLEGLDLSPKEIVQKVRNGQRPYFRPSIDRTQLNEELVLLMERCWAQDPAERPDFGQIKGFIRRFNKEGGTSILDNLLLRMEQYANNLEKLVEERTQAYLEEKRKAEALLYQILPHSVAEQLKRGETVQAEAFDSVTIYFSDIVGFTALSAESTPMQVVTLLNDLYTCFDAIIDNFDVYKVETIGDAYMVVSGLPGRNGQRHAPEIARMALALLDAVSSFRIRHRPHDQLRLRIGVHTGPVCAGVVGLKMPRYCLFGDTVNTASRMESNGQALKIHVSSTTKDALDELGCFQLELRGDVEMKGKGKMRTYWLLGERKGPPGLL

B1: JAL-1379 (peptide)
peptide: [AR‑201‑73]F[dR]L[Hyp][NMeL]DRI-NH2
modifications: reading uncertain; also: printed as (AR-201-73)-Phe-arg-Leu-Hyp-Nml-Asp-Arg-Ile-NH2
B2: JAL-1373 (peptide)
peptide: [AR‑201‑58]F[dL]L[Hyp][NMeL]DRI-NH2
modifications: reading uncertain; also: printed as (AR-201-58)-Phe-leu-Leu-Hyp-Nml-Asp-Arg-Ile-NH2
B3: JAL-1374 (peptide)
peptide: [AR‑201‑62]F[dL]L[Hyp][NMeL]DRI-NH2
modifications: reading uncertain; also: printed as (AR-201-62)-Phe-leu-Leu-Hyp-Nml-Asp-Arg-Ile-NH2
B4: JAL-0649 (peptide)
peptide: XXFGLKLDRI
HELM: PEPTIDE1{[CCCCCC(=O)[*:2]].[O=C(Cc1cccc(N[*:1])c1)[*:2]].F.G.L.K.L.D.R.I.[am]}$$$$V2.0
SMILES: CCCCCC(=O)Nc1cccc(CC(=O)N[C@@H](Cc2ccccc2)C(=O)NCC(=O)N[C@@H](CC(C)C)C(=O)N[C@@H](CCCCN)C(=O)N[C@@H](CC(C)C)C(=O)N[C@@H](CC(=O)O)C(=O)N[C@@H](CCCNC(=N)N)C(=O)N[C@H](C(N)=O)[C@@H](C)CC)c1
B5: JAL-1375 (peptide)
peptide: [AR‑201‑69]F[dL]L[Hyp][NMeL]DRI-NH2
modifications: reading uncertain; also: printed as (AR-201-69)-Phe-leu-Leu-Hyp-Nml-Asp-Arg-Ile-NH2
B6: JAL-1377 (peptide)
peptide: [AR‑201‑72]F[dR]L[Hyp][NMeL]DRI-NH2
modifications: reading uncertain; also: printed as (AR-201-72)-Phe-arg-Leu-Hyp-Nml-Asp-Arg-Ile-NH2
B7: JAL-1376 (peptide)
peptide: [AR‑201‑72]F[dL]L[Hyp][NMeL]DRI-NH2
modifications: reading uncertain; also: printed as (AR-201-72)-Phe-leu-Leu-Hyp-Nml-Asp-Arg-Ile-NH2
B8: JAL-1378 (peptide)
peptide: [AR‑201‑73]F[dL]L[Hyp][NMeL]DRI-NH2
modifications: reading uncertain; also: printed as (AR-201-73)-Phe-leu-Leu-Hyp-Nml-Asp-Arg-Ile-NH2

Biological target: T1, natriuretic peptide receptor-B
Test: cell-based or functional assay

| Binder | EC50 group, cGMP in GTM-3 cells |
| --- | --- |
| [Occ][Sni]F[dap(6263)2]L[Pro(trans-4-NH2)][NMeL]DRI-NH2 [JAL-1370] | ≤ 5 µM |
| B1 | ≤ 5 µM |
| Octanoyl-[Sni]F[dL]L[Tap(Ae)][NMeL]DRI-NH2 [JAL-1371] | ≤ 1 µM |
| B2 | ≤ 5 µM |
| B3 | ≤ 5 µM |
| Octanoyl-[Sni]F[dDap(Me2)]L[Pro(trans-4-NH2)][NMeL]DRI-NH2 [JAL-1369] | ≤ 1 µM |
| Octanoyl-[dA]F[dL][Dap(Me2)][Hyp][NMeL]DRI-NH2 [JAL-1368] | ≤ 5 µM |
| Octanoyl-[Sni]F[dL]L[Tap(Ap)][NMeL]DRI-NH2 [JAL-1372] | ≤ 1 µM |
| B4 | ≤ 15 µM |
| Octanoyl-[dA]F[dL]L[Hyp][Dap(Me2)]DRI-NH2 [JAL-1367] | ≤ 1 µM |
| B5 | ≤ 5 µM |
| B6 | ≤ 15 µM |
| B7 | ≤ 15 µM |
| B8 | ≤ 5 µM |
